In PMC6802120, “Concatenation of 14-3-3 with partner phosphoproteins as a tool to study their interaction” (Scientific Reports, 2019):
“And” between values parts separate entries of the source, which are not always exact repeats. Identical values can stand only once.

B1: pCH1 (phosphorylated peptidic chimera of 14-3-3σ(clu3)∆C with the HSPB6 phosphopeptide, residues 12-19) (other, human)
chain: GPHMERASLIQKAKLAEQAERYEDMAAFMKGAVEKGEELSCEERNLLSVAYKNVVGGQRAAWRVLSSIEQKSNEEGSAAAGPEVREYREKVETELQGVCDTVLGLLDSHLIKEAGDAESRVFYLKMKGDYYRYLAEVATGDDKKRIIDSARSAYQEAMDISKKEMPPTNPIRLGLALNFSVFHYEIANSPEEAISLAKTTFDEAMADLHTLSEDSYKDSTLIMQLLRDNLTLWTGSGSLRRASAPL
modifications: phosphoserine at Ser16 of the HSPB6 peptide (phosphorylated by PKA)
notes: three extra residues left at the N-terminus after 3C cleavage; human 14-3-3σ, C-terminally truncated, residues 1-231, with the 'clu3' replacements; linker; also called phosphorylated CH1; 14-3-3-phosphopeptide chimera; not shown: His6, N-terminal, cleaved
B2: 14-3-3-pB6 chimera (PKA-phosphorylated chimera of human 14-3-3σ(clu3)∆C and HSPB6 residues 12-153) (other)
chain: GPHMERASLIQKAKLAEQAERYEDMAAFMKGAVEKGEELSCEERNLLSVAYKNVVGGQRAAWRVLSSIEQKSNEEGSAAAGPEVREYREKVETELQGVCDTVLGLLDSHLIKEAGDAESRVFYLKMKGDYYRYLAEVATGDDKKRIIDSARSAYQEAMDISKKEMPPTNPIRLGLALNFSVFHYEIANSPEEAISLAKTTFDEAMADLHTLSEDSYKDSTLIMQLLRDNLTLWTGSGSLRRASAPLPGLSAPGRLFDQRFGEGLLEAELAALCPTTLAPYYLRAPSVALPVAQVPTDPGHFSVLLDVKHFSPEEIAVKVVGEHVEVHARHEERPDEHGFVAREFHRRYRLPPGVDPAAVTSALSPEGVLSIQAAPASAQA
modifications: phosphoserine at Ser16 of the HSPB6 part (phosphorylated by PKA)
notes: three extra residues left at the N-terminus after 3C cleavage; human 14-3-3σ, C-terminally truncated (14-3-3σ∆C), residues 1-231, with the surface entropy reduction 'clu3' replacements; linker; the full chimera 'followed the same principles' as CH1; human small heat shock protein HSPB6, residues 12-153 (out of 160): Ser16 phosphopeptide region, rest of the NTD and the α-crystallin domain; Could …
B3: unphosphorylated 14-3-3-B6 chimera (human 14-3-3σ(clu3)∆C and HSPB6 residues 12-153) (other)
chain: B2 chain
notes: three extra residues left at the N-terminus after 3C cleavage; human 14-3-3σ, C-terminally truncated (14-3-3σ∆C), residues 1-231, with the 'clu3' replacements; linker; the full chimera 'followed the same principles' as CH1; human small heat shock protein HSPB6, residues 12-153 (out of 160); also called unphosphorylated chimera; unphosphorylated version; source: E. coli BL21(DE3) without PKA, …
B4: HSPB6 ACD (α-crystallin domain, residues 72-149) (domain or fragment, human, UniProt O14558 72-149, looked up)
chain: GHFSVLLDVKHFSPEEIAVKVVGEHVEVHARHEERPDEHGFVAREFHRRYRLPPGVDPAAVTSALSPEGVLSIQAAPA
notes: human small heat shock protein HSPB6, α-crystallin domain, residues 72-149; also called ACD dimer; isolated ACD

Legend:
[1] = molecular target: 14-3-3σ∆C (C-terminally truncated human 14-3-3σ, residues 1-231) (human) (UniProt P31947); experiment: SEC; fluorescence-assisted size-exclusion spectrochromatography, Superdex 200 Increase 5/150, SEC buffer; detection at 230 nm absorbance and Trp fluorescence (excitation 298 nm, emission 360 nm); proteins alone and mixed
[2] = molecular target: the molecule itself; experiment: as above
[3] = molecular target: the molecule itself; experiment: SEC; Superdex 200 Increase 5/150, 0.45 ml/min; 20 mM Tris-HCl pH 7.6, 150 mM NaCl, 0.5 mM EDTA, 1 mM DTT, 3% glycerol; low loaded protein concentration; apparent MW from column calibration
[4] = molecular target: the molecule itself; experiment: SEC; same column and buffer as a1; higher loaded protein concentrations (second peak appears); apparent MW from column calibration; dimer to tetramer

Molecule | stoichiometry N [1] | stoichiometry N [2] | stoichiometry N [3] | stoichiometry N [4]
14-3-3σ∆C (C-terminally truncated human 14-3-3σ, residues 1-231) (from UniProt P31947 1-231) (domain or fragment) | 2 |  |  | 
B1 |  | 4 and 2 |  | 
B2 |  |  | 2 | 4
B3 |  |  | 2 | 4
B4 |  | 2 |  | 
